According to patent publication US20240025992A1 (Janssen / Centocor, published 2024):
Read-outs that look alike come from different tables or passages of the source. Each block holds one binder with its values, some of them ahead of it.

Columns and labels:
[1] = target: T1, human DLL3 on DLL3+ tumor cells (human, UniProt Q9NYJ7 27-618); assay: cell-based or functional assay
T1 sequence: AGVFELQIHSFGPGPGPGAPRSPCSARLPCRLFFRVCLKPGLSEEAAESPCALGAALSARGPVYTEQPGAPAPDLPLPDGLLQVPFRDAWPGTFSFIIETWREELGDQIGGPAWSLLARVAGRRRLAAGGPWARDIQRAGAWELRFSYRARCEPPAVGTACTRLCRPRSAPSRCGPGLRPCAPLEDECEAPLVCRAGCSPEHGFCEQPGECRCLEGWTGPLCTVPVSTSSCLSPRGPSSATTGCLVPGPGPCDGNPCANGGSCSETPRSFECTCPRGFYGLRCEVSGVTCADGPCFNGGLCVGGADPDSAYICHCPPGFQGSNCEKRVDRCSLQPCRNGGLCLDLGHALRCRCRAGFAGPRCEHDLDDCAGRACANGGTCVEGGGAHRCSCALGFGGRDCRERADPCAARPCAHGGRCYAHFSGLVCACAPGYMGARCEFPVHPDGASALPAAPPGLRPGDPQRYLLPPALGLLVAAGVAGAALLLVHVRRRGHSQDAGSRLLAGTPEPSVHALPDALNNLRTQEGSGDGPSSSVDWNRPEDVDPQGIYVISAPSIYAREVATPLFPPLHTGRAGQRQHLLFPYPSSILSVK

[2] = target: T2, recombinant human DLL3 (Example 9, construct not named) (human, UniProt Q9NYJ7 27-492, limits assumed); assay: SPR (Biacore T200), antibody captured by goat anti-Fc on a C1 chip, DLL3 titrated
T2 construct: also called DLL3 antigen
T2 sequence: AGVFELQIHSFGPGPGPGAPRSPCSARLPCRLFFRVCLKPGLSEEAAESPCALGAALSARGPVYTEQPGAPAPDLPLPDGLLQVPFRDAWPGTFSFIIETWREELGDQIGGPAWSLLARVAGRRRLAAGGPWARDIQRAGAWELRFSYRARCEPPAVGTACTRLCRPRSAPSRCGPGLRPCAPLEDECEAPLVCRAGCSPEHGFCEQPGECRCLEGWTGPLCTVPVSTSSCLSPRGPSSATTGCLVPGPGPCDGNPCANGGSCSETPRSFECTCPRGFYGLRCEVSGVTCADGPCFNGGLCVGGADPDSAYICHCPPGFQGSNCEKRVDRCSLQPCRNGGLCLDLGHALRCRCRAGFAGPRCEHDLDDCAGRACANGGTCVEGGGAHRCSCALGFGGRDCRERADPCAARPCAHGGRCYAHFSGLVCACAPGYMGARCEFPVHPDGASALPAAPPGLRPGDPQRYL

[3] = target: T2, recombinant human DLL3 (Example 9, …); assay: as above; remark: listed apart in the source
[4] = target: T3, human CD3 (CD3 epsilon as part of the T cell receptor complex) on cells (human, UniProt P07766 23-207); assay: flow cytometry on human T cells (sheet title 'T cells', GEO Mean against concentration; assay as told in p-1138)
T3 construct: also called CD3 on Jurkat cells; CD3 on human pan T cells
T3 sequence (P07766 23-207 limits assumed, one chain of several): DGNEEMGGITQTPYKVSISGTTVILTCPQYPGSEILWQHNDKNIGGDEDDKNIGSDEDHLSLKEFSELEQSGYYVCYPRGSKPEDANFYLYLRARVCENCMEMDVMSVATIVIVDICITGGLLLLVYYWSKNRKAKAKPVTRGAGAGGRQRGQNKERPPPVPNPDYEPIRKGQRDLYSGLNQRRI

[5] = target: T3, human CD3 (CD3 epsilon as part of the T …); assay: flow cytometry on human pan T cells, antibody titrated 3-fold from 100 nM, AlexaFluor 647 anti-human secondary antibody, GEO Mean

- Kd [2]: 0.024 nM
- Kd [3]: 0.024 nM
B1: DL3B585 (bispecific antibody, human IgG1, lambda, L234A L235A)
scFv: DIQMTQSPSSLSASVGDRVTITCRASQGISNYLAWFQQKPGKAPKSLIYAASSLQSGVPSKFSGSGSGTDFTLTISSLQPEDFATYYCQQYNSYPYTFAQGTKLEIKGGSEGKSSGSGSESKSTGGSQVQLVQSGAEVKKPGASVKVSCKASGNTFTNYYIHWVRQAPGQGLEWMGIINPSGGSTSYAQKLQGRMTMTRDTSTSTVYMELSSLRSEDTAVYFCARQGPFIGDAFDIWGQGTMVTVSSEPKSSDKTHTCPPCPAPEAAGGPSVFLFPPKPKDTLMISRTPEVTCVVVSVSHEDPEVKFNWYVDGVEVHNAKTKPREEQYNSTYRVVSVLTVLHQDWLNGKEYKCKVSNKALPAPIEKTISKAKGQPREPQVYVLPPSREEMTKNQVSLLCLVKGFYPSDIAVEWESNGQPENNYLTWPPVLDSDGSFFLYSKLTVDKSRWQQGNVFSCSVMHEALHNHYTQKSLSLS
heavy: QVQLQQSGPRLVRPSQTLSLTCAISGDSVFNNNAAWSWIRQSPSRGLEWLGRTYYRSKWLYDYAVSVKSRITVNPDTSRNQFTLQLNSVTPEDTALYYCARGYSSSFDYWGQGTLVTVSSASTKGPSVFPLAPSSKSTSGGTAALGCLVKDYFPEPVTVSWNSGALTSGVHTFPAVLQSSGLYSLSSVVTVPSSSLGTQTYICNVNHKPSNTKVDKKVEPKSCDKTHTCPPCPAPEAAGGPSVFLFPPKPKDTLMISRTPEVTCVVVSVSHEDPEVKFNWYVDGVEVHNAKTKPREEQYNSTYRVVSVLTVLHQDWLNGKEYKCKVSNKALPAPIEKTISKAKGQPREPQVYVYPPSREEMTKNQVSLTCLVKGFYPSDIAVEWESNGQPENNYKTTPPVLDSDGSFALVSKLTVDKSRWQQGNVFSCSVMHEALHNHYTQKSLSLSPG
light: QSALTQPASVSGSPGQSITISCTGTSSNIGTYKFVSWYQQHPDKAPKVLLYEVSKRPSGVSSRFSGSKSGNTASLTISGLQAEDQADYHCVSYAGSGTLLFGGGTKLTVLGQPKAAPSVTLFPPSSEELQANKATLVCLISDFYPGAVTVAWKADSSPVKAGVETTTPSKQSNNKYAASSYLSLTPEQWKSHRSYSCQVTHEGSTVEKTVAPTECS
notes: DLL3 arm: DL3B279-LH-scFv-Fc; CD3 arm: CD3B376-Fab-Fc; also called CD3B376-Fab; DL3B279-LH-scFv
- Cytotoxicity (% Lysis), SHP-77, whole PBMCs, 1:1 ET ratio, 30 nM [1]: 58.1%

- Kd [3]: 0.033 nM
- binding result [4]: binds
B2: D3C3B80 (bispecific antibody, human IgG1, lambda, L234A L235A)
scFv: DIQMTQSPSSLSASVGDRVTITCRASQGISNYLAWFQQKPGKAPKSLIYAASSLQSGVPSKFSGSGSGTDFTLTISSLQPEDFATYYCQQYNSYPYTFGQGTKLEIKGGSEGKSSGSGSESKSTGGSQVQLVQSGAEVKKPGASVKVSCKASGQTFTNYYIHWVRQAPGQGLEWMGIINPSGGSTSYAQKLQGRMTMTRDTSTSTVYMELSSLRSEDTAVYFCARQGPFIGDAFDIWGQGTTVTVSSEPKSSDKTHTCPPCPAPEAAGGPSVFLFPPKPKDTLMISRTPEVTCVVVSVSHEDPEVKFNWYVDGVEVHNAKTKPREEQYNSTYRVVSVLTVLHQDWLNGKEYKCKVSNKALPAPIEKTISKAKGQPREPQVYVLPPSREEMTKNQVSLLCLVKGFYPSDIAVEWESNGQPENNYLTWPPVLDSDGSFFLYSKLTVDKSRWQQGNVFSCSVMHEALHNHYTQKSLSLSPGK
heavy: QVQLQQSGPRLVRPSQTLSLTCAISGDSVFNNNAAWSWIRQSPSRGLEWLGRTYYRSKWLYDYAVSVKSRITVNPDTSRNQFTLQLNSVTPEDTALYYCARGYSSSFDYWGQGTLVTVSSASTKGPSVFPLAPSSKSTSGGTAALGCLVKDYFPEPVTVSWNSGALTSGVHTFPAVLQSSGLYSLSSVVTVPSSSLGTQTYICNVNHKPSNTKVDKKVEPKSCDKTHTCPPCPAPEAAGGPSVFLFPPKPKDTLMISRTPEVTCVVVSVSHEDPEVKFNWYVDGVEVHNAKTKPREEQYNSTYRVVSVLTVLHQDWLNGKEYKCKVSNKALPAPIEKTISKAKGQPREPQVYVYPPSREEMTKNQVSLTCLVKGFYPSDIAVEWESNGQPENNYKTTPPVLDSDGSFALVSKLTVDKSRWQQGNVFSCSVMHEALHNHYTQKSLSLSPGK
light: B1 light
notes: DLL3 arm: DL3B279 variant LH-scFv-Fc (ZW); CD3 arm: CD3B376-K477-Fab-Fc; also called CD3B376-Fab

- Kd [2]: 0.031 nM
- binding result [5]: binds
B3: DL3B587 (bispecific antibody, human IgG1, kappa, L234A L235A)
scFv: B1 scFv
heavy: EVQLVESGGGLVKPGGSLRLSCAASGFTFSRYNMNWVRQAPGKGLEWVSSISTSSNYIYYADSVKGRFTFSRDNAKNSLDLQMSGLRAEDTAIYYCTRGWGPFDYWGQGTLVTVSSASTKGPSVFPLAPSSKSTSGGTAALGCLVKDYFPEPVTVSWNSGALTSGVHTFPAVLQSSGLYSLSSVVTVPSSSLGTQTYICNVNHKPSNTKVDKKVEPKSCDKTHTCPPCPAPEAAGGPSVFLFPPKPKDTLMISRTPEVTCVVVSVSHEDPEVKFNWYVDGVEVHNAKTKPREEQYNSTYRVVSVLTVLHQDWLNGKEYKCKVSNKALPAPIEKTISKAKGQPREPQVYVYPPSREEMTKNQVSLTCLVKGFYPSDIAVEWESNGQPENNYKTTPPVLDSDGSFALVSKLTVDKSRWQQGNVFSCSVMHEALHNHYTQKSLSLSPG
light: DIQMTQSPSSLSASVGDRVTITCRARQSIGTAIHWYQQKPGKAPKLLIKYASESISGVPSRFSGSGSGTDFTLTISSLQPEDFATYYCQQSGSWPYTFGQGTKLEIKRTVAAPSVFIFPPSDEQLKSGTASVVCLLNNFYPREAKVQWKVDNALQSGNSQESVTEQDSKDSTYSLSSTLTLSKADYEKHKVYACEVTHQGLSSPVTKSFNRGEC
notes: DLL3 arm: DL3B279-LH-scFv-Fc; CD3 arm: CD3W245-Fab-Fc; also called CD3W245-Fab; DL3B279-LH-scFv
- Cytotoxicity (% Lysis), SHP-77, whole PBMCs, 1:1 ET ratio, 30 nM [1]: 83.3%
